Reference: PMC4059916, “VARP Is Recruited on to Endosomes by Direct Interaction with Retromer, Where Together They Function in Export to the Cell Surface” (Developmental Cell, 2014)

T1: SeMet-Rab32 1-225 (Q85L/V100M/Q153M/V158M/I192M) (UniProt Q13637 1-225, Q85L | V100M | Q153M | V158M | I192M, selenomethionine (SeMet protein))
T1 construct: Rab32 residues 1-225; also called SeMet-Rab32Q85L; source: E. coli B834, M9 media (seleno-methionine), purified
T1 sequence (looked up): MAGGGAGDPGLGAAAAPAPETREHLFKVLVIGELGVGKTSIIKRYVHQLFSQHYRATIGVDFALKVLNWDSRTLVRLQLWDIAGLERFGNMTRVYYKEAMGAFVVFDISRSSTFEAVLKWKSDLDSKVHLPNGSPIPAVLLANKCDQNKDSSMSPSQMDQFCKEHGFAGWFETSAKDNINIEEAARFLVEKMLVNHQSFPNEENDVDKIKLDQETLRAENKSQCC

B1: Rab32 1-225 (Q85L), GTP hydrolysis-defective mutant, GST removed (enzyme, UniProt Q13637 1-225, looked up)
chain: MAGGGAGDPGLGAAAAPAPETREHLFKVLVIGELGVGKTSIIKRYVHQLFSQHYRATIGVDFALKVLNWDSRTLVRLQLWDIAGLERFGNMTRVYYKEAVGAFVVFDISRSSTFEAVLKWKSDLDSKVHLPNGSPIPAVLLANKCDQNKDSSQSPSQVDQFCKEHGFAGWFETSAKDNINIEEAARFLVEKILVNHQSFPNEENDVDKIKLDQETLRAENKSQCC
notes: Rab32, residues 1-225; limits 1-225 are printed for the crystallised construct; also called Rab32(Q85L); Rab32Q85L

Columns and labels:
Conditions in all cases: both partners purified
[1] = target: VPS29, recombinant, as used in ITC (UniProt Q9UBQ0 1-182); assay: ITC; recombinant VARP Cys-rich motif fragments and VPS29; who was titrated is not told
[2] = target: T2, VARP fragment, residues 397-650 (human, UniProt Q96NW4 397-650); assay: ITC; Nano ITC; VARP constructs at 60 μM in the cell at 4°C, Rab constructs at 300 μM titrated, 24 injections of 2 μl; 50 mM HEPES pH 7.4, 200 mM NaCl, 5 mM MgCl2, 1 mM TCEP
T2 construct: VARP (VPS9-domain ankyrin repeat protein; 1,050 residues), residues 397-650, contains ANKRD1; source: E. coli Rosetta 2 pLysS, purified (GSH-sepharose, PreScission cleavage, Superdex 75)

[3] = target: T1, SeMet-Rab32 1-225 …; assay: crystal structure; sitting drop vapor diffusion at 18°C, PEG 3350, 200 mM sodium citrate pH 8.0; molecular replacement
[4] = target: B1; assay: ITC; Nano ITC; VARP constructs at 60 μM in the cell at 4°C, Rab constructs at 300 μM titrated, 24 injections of 2 μl; 50 mM HEPES pH 7.4, 200 mM NaCl, 5 mM MgCl2, 1 mM TCEP

T2 sequence (Q96NW4 397-650): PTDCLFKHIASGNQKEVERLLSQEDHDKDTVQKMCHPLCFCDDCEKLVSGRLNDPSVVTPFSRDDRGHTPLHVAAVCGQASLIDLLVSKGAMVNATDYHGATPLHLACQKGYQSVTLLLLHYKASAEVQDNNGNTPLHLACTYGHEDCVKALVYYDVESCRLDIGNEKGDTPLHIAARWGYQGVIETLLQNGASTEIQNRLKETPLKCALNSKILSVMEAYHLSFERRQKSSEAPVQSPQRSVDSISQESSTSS

| Kd [4] [µM] | Binder | also measured |
| --- | --- | --- |
| – | VARP fragment with the second Cys-rich motif, 4C2 (C711S/C715S/C717S/C720S), as used in ITC (domain or fragment, VARP; source: E. coli, purified) TEEDLEDAEDTVSAADPEFSHPLSQSPKSAPAQKRLAKVPASGLGVNVTSQDGSS | fold decrease in binding against the wild-type fragment [1]: ~20 fold |
| – | B1 | Kd [2]: 7 µM |
| 2.5 | VARP451-640His6 (first ankyrin repeat domain, ANKRD1), wild type (domain or fragment, human, UniProt Q96NW4 451-640, looked up, VARP (VPS9-domain ankyrin repeat protein); also called VARP ANKRD1; VARP-ANKR domain 1; source: E. coli Rosetta 2 pLysS, purified (GSH-sepharose, PreScission cleavage, Ni-NTA agarose, Superdex 75); not shown: His6, C-terminal, kept) PSVVTPFSRDDRGHTPLHVAAVCGQASLIDLLVSKGAMVNATDYHGATPLHLACQKGYQSVTLLLLHYKASAEVQDNNGNTPLHLACTYGHEDCVKALVYYDVESCRLDIGNEKGDTPLHIAARWGYQGVIETLLQNGASTEIQNRLKETPLKCALNSKILSVMEAYHLSFERRQKSSEAPVQSPQRSVD | binding result [3]: binds |
| ~8 | VARP451-640His6 K546D (domain or fragment, human, UniProt Q96NW4 451-640, looked up, also called VARP(K546D); source: E. coli Rosetta 2 pLysS, purified; not shown: His6, C-terminal, kept) PSVVTPFSRDDRGHTPLHVAAVCGQASLIDLLVSKGAMVNATDYHGATPLHLACQKGYQSVTLLLLHYKASAEVQDNNGNTPLHLACTYGHEDCVDALVYYDVESCRLDIGNEKGDTPLHIAARWGYQGVIETLLQNGASTEIQNRLKETPLKCALNSKILSVMEAYHLSFERRQKSSEAPVQSPQRSVD | – |
| ~22 | VARP451-640His6 Y550A (domain or fragment, human, UniProt Q96NW4 451-640, looked up, also called VARP(Y550A); source: E. coli Rosetta 2 pLysS, purified; not shown: His6, C-terminal, kept) PSVVTPFSRDDRGHTPLHVAAVCGQASLIDLLVSKGAMVNATDYHGATPLHLACQKGYQSVTLLLLHYKASAEVQDNNGNTPLHLACTYGHEDCVKALVAYDVESCRLDIGNEKGDTPLHIAARWGYQGVIETLLQNGASTEIQNRLKETPLKCALNSKILSVMEAYHLSFERRQKSSEAPVQSPQRSVD | – |
| > 300 | VARP451-640His6 L513D (domain or fragment, human, UniProt Q96NW4 451-640, looked up, source: E. coli Rosetta 2 pLysS, purified; not shown: His6, C-terminal, kept) PSVVTPFSRDDRGHTPLHVAAVCGQASLIDLLVSKGAMVNATDYHGATPLHLACQKGYQSVTDLLLHYKASAEVQDNNGNTPLHLACTYGHEDCVKALVYYDVESCRLDIGNEKGDTPLHIAARWGYQGVIETLLQNGASTEIQNRLKETPLKCALNSKILSVMEAYHLSFERRQKSSEAPVQSPQRSVD | – |
